Results: US20210061900A1 (ASTUTE MEDICAL, published 2021)

T1: C-C motif chemokine 14 (CCL14), human (human, UniProt Q16627 20-93)
T1 construct: Residues 20-93 are the mature CCL14 it describes, with signal peptide 1-19; also called HCC-1; NCC-2
T1 sequence: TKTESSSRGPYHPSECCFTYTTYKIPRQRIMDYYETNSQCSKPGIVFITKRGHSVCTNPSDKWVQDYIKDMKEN


Target: T1, C-C motif chemokine 14 (CCL14), human
Assay: binding to arrays of CCL14-derived peptides (epitope mapping)
Description: Antibodies were diluted in buffer and applied to the peptide library array. Each antibody tested was optimized for the array by testing different blocking conditions and sample concentration. […] Epitope mapping was precluded in the case of antibodies showing high binding signals throughout the array.

binding result | Binder
binds | 25H2/25K1 (antibody, V domains shown, Rabbit monoclonal IgG expressed in HEK cells; also called 25H2 heavy chain / 25K1 light chain) VH: QSLEESGGDLVKPGASLTLTCTASRFDFSSAYYMCWVRQAPGKGLEWIACIYAGSSGGTYYATWAKGRFTISKTSSTTVTLQLTSLTAADTATYFCAGSTGNSRGSYFNLWGQGTLVTVSS V domain: AQVLTQTPSPVSAAVGGTVTINCQSSQSVYDNNWLAWYQQKLGQPPKLVIYDASKLASGVPSRFKGSGSGTHFTLTISELQCDDSATYYCQGEYSDIWGFGGGTEVVVK
binds | 10H3/10K1 (antibody, V domains shown, Rabbit monoclonal IgG expressed in HEK cells; also called 10H3 heavy chain / 10K1 light chain) VH: QSVKESEGGLFKPADTLTLTCTVSGFSLSSYAINWVRQAPGEGLEYIGWISDVGTAYYASWAKSRSTITRNTDENTVTLKMTSLTAADTATYFCAGGDGSYSNYWVSDIWGQGTLVTVSS VL: AVVLTQTPSLVSAPVGGTVTVKCRASQTINSRLAWYQQKQGQPPKLLIYEASKLASGVPSRFKGSGSGTEYTLTIRGVECADAATYSCQEYADENIFGGGTEVVVK

Target: T1, C-C motif chemokine 14 (CCL14), human
Assay: lateral flow sandwich, CCL14 5 ng/mL; strip antibody, with 4H1/4K3 conjugate
Description: (§1) Various antibodies of the invention were tested for their ability to form sandwich complexes in a lateral flow format. Urine was used as a sample matrix for CCL14 antigen standards. One member of the antibody pair (the “strip” antibody) was immobilized onto a nitrocellulose membrane, and the other member of the antibody pair was prepared as a labeled conjugate with a label that is detectable by the ASTUTE 140® meter system for reading to the test strip.
(§2) To further understand the ability of the antibodies of the present invention to pair, a matrix of various antibodies was analyzed at a single CCL14 concentration of 5 ng/mL in a 100 μL sample volume. The solid phase “strip” antibody was applied to nitrocellulose in 3 μL of a 0.25 μg/mL solution. The conjugate was mixed with the sample volume to a concentration of 10 μg/mL.

binding result | Binder
binds | 2H3/2K1 (antibody, V domains shown, Rabbit monoclonal IgG expressed in HEK cells; also called 2H3 heavy chain / 2K1 light chain) VH: QEQLKESGGGLVQPGGSLKLSCKASGFAFSSDYMSWVRQAPGKGLEWIGYIDPIFGSTAYASWVNGRFTISSHNAQNTLYLHLNSLTAADTATYFCARDKDYSSGWGGYFNLWGQGTLVTVSS VL: AIVMTQTPASVEAAVGGTVTIKCQASQSINSYLAWYQQKPGQPPRLLIYEASTLASGVPSRFKGSGSGTQFTLTISDLECADAATYYCQTYYYSVDSSVGSNAFGGGTEVVVK
binds | 3H1/3K1 (antibody, V domains shown, Rabbit monoclonal IgG expressed in HEK cells; also called 3H1 heavy chain / 3K1 light chain) VH: QSVRESEGGLFKPADTLTLTCTVSGFSLSSDAISWVRQAPGNGLEWIGAIDFGGSAYYASWAKSRSTITRNTNENTVTLKMTSLTAADTATYFCARSPSFGIVDRLDLWGQGTLVTVSS VL: AVVLTQTASPVSAPVGGTVTIKCQASEDIDSYLAWYQQKPGQPPKLLIYDVFDLSSGVPSRFKGSGSGTEFTLTISDLECADAATYYCQSYYYVLGTTSTDHNSFGGGTEVVVK
binds | 12H2/12K1 (antibody, V domains shown, Rabbit monoclonal IgG expressed in HEK cells; also called 12H2 heavy chain / 12K1 light chain) VH: QSVRESEGGLFKPADTLTLTCTVSGFSLSSDAISWVRQAPGNGLEWIGAIDFGGSAYYASWAKSRSTITRNTNENTVTLKMTSLTAADTATYFCARSPSFGIVDRLDLWGQGTLVTVSS VL: AVVLTQTASPVSAPVGGTVTIKCQASEDIDSYLAWYQQKPGQPPKLLIYDVFDLSSGVPSRFKGSGSGTEFTLTISDLECADAATYYCQSYYYVLGTTSTDHNSFGGGTEVVVK
binds | 31H1/31K1 (antibody, V domains shown, Rabbit monoclonal IgG expressed in HEK cells; also called 31H1 heavy chain / 31K1 light chain) VH: QSVRESEGGLFKPADTLTLTCTVSGFSLSSDAISWVRQAPGNGLEWIGAIDFGGSAYYASWAKSRSTITRNTNENTVTLKMTSLTAADTATYFCARSPSFGIVDRLDLWGQGTLVTVSS VL: AVVLTQTASPVSAPVGGTVTIKCQASEDIDSYLAWYQQKPGQPPKLLIYDVFDLSSGVPSRFKGSGSGTEFTLTISDLECADAATYYCQSYYYVLGTTSTDHNSFGGGTEVVVK

Target: T1, C-C motif chemokine 14 (CCL14), human
Assay: lateral flow sandwich, CCL14 5 ng/mL; labelled conjugate, with 2H3/2K1 on the strip
Description: as §1, §2

binding result | Binder
binds | 18H1/18K1 (antibody, V domains shown, Rabbit monoclonal IgG expressed in HEK cells; also called 18H1 heavy chain / 18K1 light chain) VH: QSVKESEGGLFKPADTLTLTCTVSGFSLSSYAINWVRQAPGEGLEYIGWISDVGTAYYASWAKSRSTITRNTDENTVTLKMTSLTAADTATYFCAGGDGSYSNYWVSDIWGQGTLVTVSS VL: AVVLTQTASPVSAPVGGTVTVKCQASQTINSRLAWYQQKQGQPPKLLIYEASTLASGVPSRFKGSGSGTEYTLTIRGVECADAATYSCQEYADENIFGGGTEVVVK
binds | 19H2/19K3 (antibody, V domains shown, Rabbit monoclonal IgG expressed in HEK cells; also called 19H2 heavy chain / 19K3 light chain) VH: QSVKESEGGLFKPADTLTLTCTVSGFSLSSFAINWVRQAPGEGLEYIGWISDVGTAYYASWAKSRSTITRNADENTVTLKMTSLTAADTATYFCAGGDGSYSNYWVSDIWGQGTLVTVSS VL: AVVLTQTASPVSAPVGGTVTVKCQASQTINNRLAWYQQKQGQPPKLLIYEASKLASGVPSRFKGSGSGTEYTLTIRGVECADAATYSCQEYADENIFGGGTEVVVK

The next lines start with the binder.

Binder | binding result
17H2/17K1 (antibody, V domains shown, Rabbit monoclonal IgG expressed in HEK cells; Used as a labelled conjugate; also called 17H2 heavy chain / 17K1 light chain) VH: QSVKESEGGLFKPADTLTLTCTVSGFSLSSYAINWVRQAPGEGLEYIGWISDVGTAYYASWAKSRSTITRNTDENTVTLKMTSLTAADTATYFCAGGDGSYSNYWVSDIWGQGTLVTVSS VL: AVVLTQTASPVSAPVGGTVTVKCQASQTINSRLAWYQQKQGQPPKLLIYEASTLASGVPSRFKGSGSGTEYTLTIRGVECADAATYSCQEYADENIFGGGTEVVVK | binds
4H1/4K3 (antibody, V domains shown, Rabbit monoclonal IgG expressed in HEK cells; Used as a labelled conjugate; also called 4H1 heavy chain / 4K3 light chain) VH: QSVKESEGGLFKPADTLTLTCTVSGFSLSSFAINWVRQAPGEGLEYIGWISDVGTAYYASWAKSRSTITRNTDENTATLKMTSLTAADTATYFCAGGDGSYSNYWVSDIWGQGTLVTVSS VL: AVVLTQTASPVSAPVGGTVTVKCQASQTINNRLAWYQQKQGQPPKLLIYEASKLASGVPSRFKGSGSGTEYTLTIRGVECADAATYSCQEYADENIFGGGTEVVVK | binds
